# Assay results: US20080274134A1
# Molecular target: Protein G on µMACS Protein G microbeads (Group G Streptococci) (UniProt P06654)
# Experiment: immobilisation on µMACS Protein G microbeads
# UniProt P06654, sequence (P06654 228-352): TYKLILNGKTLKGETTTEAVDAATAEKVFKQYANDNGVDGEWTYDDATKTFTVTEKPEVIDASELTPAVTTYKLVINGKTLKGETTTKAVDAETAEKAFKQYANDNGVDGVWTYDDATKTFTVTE
row,capacity of the microbeads (µg per ml of microbead suspension),Substance
1,95,human monoclonal antibody 2F5
2,60,human monoclonal antibody 2G12
3,55,human monoclonal antibody IgG1b12
